Fewer inactive variants are shown than the library holds.
B1: TPR 5TU (parent)
chain: GGAUCUUCUCGAUCUAACAAAAAAGACAAAUCUGCCACAAAGCUUGAGAGCAUCUUCGGAUGCAGAGGCGGCAGCCUUCGGUGGCGCGAUAGCGCCAACGUUCUCAACUAUGACACGCAAAACGCGUGCUCCGUUGAAUGGAGUUUAUCAUG

Variants of: B1
Assay: polymerase ribozyme fitness, log enrichment relative to wild type (log ratio); higher = more active; in vitro selection for triplet polymerase activity
How it was run: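 Mutant libraries were PCR-built and transcribed for each subunit of a heterodimeric triplet polymerase ribozyme and selected for one round in triplicate at −7 °C, frozen, before gel excision of extended constructs and streptavidin-bead capture. Input and output libraries were Illumina-sequenced, keeping genotypes with ≥10 input reads and ≥1 read per output. Fitness is a logarithmic ratio of genotype to wild-type enrichment, in base 2, using inverse-variance-weighted replicate averages.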

| Variant | polymerase ribozyme fitness (log ratio) |
| --- | --- |
| C38U U55G A119G | -0.675 |
| A37U G83C A91C A98G G124U | ≤ -4.2 |
| A37G G117U | -2.18 |
| C38U G83C | -0.262 |
| C38U A73U | 0.0337 |
| A37G U55A A66G C75U C85A A122U | ≤ -4.2 |
| A37G A47U G81C C95G U102G A120U U134C U135G A137C | ≤ -4.2 |
| C38U C85A G117C | -0.0326 |
| A37G G58C C85A | -3.83 |
| C38U A49C C85U G92U C103A U111C U144C | ≤ -4.2 |
| C38G A52G G62A U135G | ≤ -4.2 |
| A37U C75U G83A A98U | -2.88 |
| C38U C96G | -1.09 |
| A37U U45A G46C C85U C105U U144A | ≤ -4.2 |
| C38G C54G C76G A107U U146G | ≤ -4.2 |
| C38U A89G | -1.07 |
| C38U A47C U53A A142C | -3.39 |
| C38G C123A | -0.288 |
| C38U C76G | ≤ -4.2 |
| C38G U146C | -0.518 |
| A37G C51U A66U G83A U151G | ≤ -4.2 |

| Variant | polymerase ribozyme fitness (log ratio) |
| --- | --- |
| A37U G68U C118A | ≤ -4.2 |
| C38U C51G U82C C96A A97U C125G | -3.55 |
| C38G A73U C95A U146G | -2.85 |
| C38U C69A U82A G94U | -3.99 |
| A37C U56A U90A C103G A121U C123U G141C | ≤ -4.2 |
| C38G C43U G81U G86U A98G C103G A150G U151C | ≤ -4.2 |
| C38U G48C G92A A142C G143U | ≤ -4.2 |
| C38U U53A C105U | 0.169 |
| C38G A142C | -1.24 |
| C38G G42C U82G G86C G141C U144G | ≤ -4.2 |
| C38A C85A U144C | -0.839 |
| C38U A60C C85U C118U G136A | -0.726 |
| C38U A106U U145C | -1.24 |
| C38U G86A U148C | -3.22 |
| C38U G140U | -2.77 |
| C38U C93G C125A | -3.39 |
| C38G G92A C105G | ≤ -4.2 |
| C38A U53A A60U C93G C131A G141C | -3.94 |
| C38A G42C U55G C69U U90G U146C | ≤ -4.2 |
| C38U G136U | -2.3 |
| A37G G83U G84A A142G | ≤ -4.2 |

| Variant | polymerase ribozyme fitness (log ratio) |
| --- | --- |
| A37C G83U | -0.441 |
| C38U C57A G143C | -2.41 |
| A37C G84A U101G G126C U135C | -3.6 |
| C38A C76A G92U G136A G152U | ≤ -4.2 |
| C38U G48A C87A | ≤ -4.2 |
| C38U G58C C96U A98G | 0.385 |
| C38U G83U C149G A150C | ≤ -4.2 |
| C38U C95U | -0.731 |
| C38U C95A | -1.07 |
| C38A U56G C93G C95A | ≤ -4.2 |
| A37G C96U C105G | -3.63 |
| A37G U56A G84A C85U G133C | -4.13 |
| C38A A47G U55A U56C A60G | -2.08 |
| A37G A52G U55A U56A C85U C103U U145A | -3.09 |
| A37G A52C A97C | -3.67 |
| A37U A66G C149U G152C | ≤ -4.2 |
| C38G A41G U55A G83A G143A | -1.78 |
| A37U C38U C76G C93U C96A C118U G143U | ≤ -4.2 |
| A37G U53A U134G | -3.7 |
| C38G C85A C116A A120G | -2.28 |
| A37U G94A | -1 |

| Variant | polymerase ribozyme fitness (log ratio) |
| --- | --- |
| C38A G94A C123U | -0.611 |
| C38A A89C C93G C95G C108U U135C | ≤ -4.2 |
| A37C U55A C96U A113U A137U | -4.18 |
| C38A A73C C75G A120C | ≤ -4.2 |
| A37U U134G | -2.86 |
| C38G C54U C57U G141C | -2.86 |
| C38U U45A G68C U102G A138G | ≤ -4.2 |
| C38A U56G G136C U146C | -3.92 |
| A37G C93U | -3.38 |
| C38U G62U C96G | -1.8 |
| A37G C54U U55A G86A A89U U109G A138G | ≤ -4.2 |
| C38G U56A C93U U104G A122C | -2.96 |
| A37U U55G A60G C85G A107C C131U | ≤ -4.2 |
| C38U A73G G83U A91U A97U A110G | ≤ -4.2 |
| C38U C95A C108U | -3.39 |
| C38U C95A C108U C132U | -3.39 |
| A37U C51G G88A | ≤ -4.2 |
| C38A A41U A52C | -2.5 |
| A37G G94A | -1.49 |
| A37U A47C C85U C95U A113C U148A G152U | ≤ -4.2 |
| C38G A40U U55A U56A C87U A89C | -3.99 |

Source: the RNAGym collection of RNA variant scans (doi:10.1073/pnas.2313332121)
